Experimental findings from article PMC8748714 (2022) are described below.

To fix the notation:
B1: unnamed (parent)
chain 1: HSQGTFTSDYSKYLDSRRAQDFVQWLMNTKRNRNNIA
chain 2: RPQGATVSLWETVQKWREYRRQCQRSLTEDPPPATDLFCNRTFDEYACWPDGEPGSFVNVSCPWYLPWASSVPQGHVYRFCTAEGLWLQKDNSSLPWRDLSECEESKRGERSSPEEQLLFLYIIYTVGYALSFSALVIASAILLGFRHLHCTRNYIHLNLFASFILRALSVFIKDAALKWMYSTAAQQHQWDGLLSYQDSLSCRLVFLLMQYCVAANYYWLLVEGVYLYTLLAFSVLSEQWIFRLYVSIGWGVPLLFVVPWGIVKYLYEDEGCWTRNSNMNYWLIIRLPILFAIGVNFLIFVRVICIVVSKLKANLMCKTDIKCRLAKSTLTLIPLLGTHEVIFAFVMDEHARGTLRFIKLFTELSFTSFQGLMVAILYCFVNNEVQLEFRKSWERWRLEHLHIQRDSSMKPLKCPTSSLSSGATAGSSMYTATCQASCS

In the first test the parent is B1. As to the kind of experiment: radioligand competition binding on whole cells. To be noted: with partner chain of the complex shown;; read off a plot.
On to chain 2 RPQGATVSLWETVQKWREYRRQCQRSLTEDPPPATDLFCNRTFDEYACWPDGEPGSFVNVSCPWYLPWASSVPQGHVYRFCTAEGLWLQKDNSSLPWRDLSECEESKRGERSSPEEQLLFLYIIYTVGYALSFSALVIASAILLGFRHLHCTRNYIHLNLFASFILRALSVFIKDAALKWMYSTAAQQHQWDGLLSYQDSLSCRLVFLLMQYCVAANYYWLLVEGVYLYTLLAFSVLSEQWIFRLYVSIGWGVPLLFVVPWGIVKYLYEDEGCATRNSNMNYWLIIRLPILFAIGVNFLIFVRVICIVVSKLKANLMCKTDIKCRLAKSTLTLIPLLGTHEVIFAFVMDEHARGTLRFIKLFTELSFTSFQGLMVAILYCFVNNEVQLEFRKSWERWRLEHLHIQRDSSMKPLKCPTSSLSSGATAGSSMYTATCQASCS [chain 2 W274A], for which the log10 ratio is -0.4 pIC50 ΔWT. On the same count and under the same terms, the same measure for chain 2 RPQGATVSLWETVQKWREYRRQCQRSLTEDPPPATDLFCNRTFDEYACWPDGEPGSFVNVSCPWYLPWASSVPQGHVYRFCTAEGLWLQKDNSSLPWRDLSECEESKRGERSSPEEQLLFLYIIYTVGYALSFSALVIASAILLGFRHLHCTRNYIHLNLFASFILRALSVFIKDAALKWMYSTAAQQHQWDGLLSYQDSLSCRLVFLLMQYCVAANYYWLLVEGVYLYTLLAFSVLSEQWIFRLYVSIGWGVPLLFVVPWGIVKYLYEDEGCWTRNSNMNYWLIIRLPILFAIGVNFLIFVRVICIVVSKLKANLMCKTDIKCRLAKSTLTLIPLLGTHAVIFAFVMDEHARGTLRFIKLFTELSFTSFQGLMVAILYCFVNNEVQLEFRKSWERWRLEHLHIQRDSSMKPLKCPTSSLSSGATAGSSMYTATCQASCS [chain 2 E341A]: 0.3 pIC50 ΔWT; for chain 2 RPQGATVSLWETVQKWREYRRQCQRSLTEDPPPATDLFCNRTFDEYACWPDGEPGSFVNVSCPWYLPWASSVPQGHVYRFCTAEGLWLQKDNSSLPWRDLSECEESKRGERSSPEEQLLFLYIIYTVGYALSFSALVIASAILLGFRHLHCTRNYIHLNLFASFILAALSVFIKDAALKWMYSTAAQQHQWDGLLSYQDSLSCRLVFLLMQYCVAANYYWLLVEGVYLYTLLAFSVLSEQWIFRLYVSIGWGVPLLFVVPWGIVKYLYEDEGCWTRNSNMNYWLIIRLPILFAIGVNFLIFVRVICIVVSKLKANLMCKTDIKCRLAKSTLTLIPLLGTHEVIFAFVMDEHARGTLRFIKLFTELSFTSFQGLMVAILYCFVNNEVQLEFRKSWERWRLEHLHIQRDSSMKPLKCPTSSLSSGATAGSSMYTATCQASCS [chain 2 R167A]: 0.1 pIC50 ΔWT; for chain 2 RPQGATVSLWETVQKWREYRRQCQRSLTEDPPPATDLFCNRTFDEYACWPDGEPGSFVNVSCPWYLPWASSVPQGHVYRFCTAEGLWLQKDNSSLPWRDLSECEESKRGERSSPEEQLLFLYIIYTVGYALSFSALVIASAILLGFRHLHCTRNYIHLNLFASFILRALSVFIKDAALKWMYSTAAQQHQWDGLLSYQDSLSCRLVFLLMQYCVAAAYYWLLVEGVYLYTLLAFSVLSEQWIFRLYVSIGWGVPLLFVVPWGIVKYLYEDEGCWTRNSNMNYWLIIRLPILFAIGVNFLIFVRVICIVVSKLKANLMCKTDIKCRLAKSTLTLIPLLGTHEVIFAFVMDEHARGTLRFIKLFTELSFTSFQGLMVAILYCFVNNEVQLEFRKSWERWRLEHLHIQRDSSMKPLKCPTSSLSSGATAGSSMYTATCQASCS [chain 2 N217A]: 0.3 pIC50 ΔWT. Take chain 2 RPQGATVSLWETVQKWREYRRQCQRSLTEDPPPATDLFCNRTFDEYACWPDGEPGSFVNVSCPWYLPWASSVPQGHVYRFCTAEGLWLQKDNSSLPWRDLSECEESKRGERSSPEEQLLFLYIIYTVGYALSFSALVIASAILLGFRHLHCTRNYIHLNLFASFILRALSVFIADAALKWMYSTAAQQHQWDGLLSYQDSLSCRLVFLLMQYCVAANYYWLLVEGVYLYTLLAFSVLSEQWIFRLYVSIGWGVPLLFVVPWGIVKYLYEDEGCWTRNSNMNYWLIIRLPILFAIGVNFLIFVRVICIVVSKLKANLMCKTDIKCRLAKSTLTLIPLLGTHEVIFAFVMDEHARGTLRFIKLFTELSFTSFQGLMVAILYCFVNNEVQLEFRKSWERWRLEHLHIQRDSSMKPLKCPTSSLSSGATAGSSMYTATCQASCS [chain 2 K174A]: the log10 ratio is -1.9 pIC50 ΔWT.

In another test the parent is B1. As to the kind of experiment: radioligand competition binding on whole cells. To be noted: with partner chain of the complex shown;; read off a plot. The source holds these as a separate data set.
As to chain 2 RPQGATVSLWETVQKWREYRRQCQRSLTEDPPPATDLFCNRTFDEYACWPDGEPGSFVNVSCPWYLPWASSVPQGHVYRFCTAEGLWLQKDNSSLPWRDLSECEESKRGERSSPEEQLLFLYIIYTVGYALSFSALVIASAILLGFRHLHCTRNYIHLNLFASFILRALSVFIKDAALKWMYSTAAQQHQWDGLLSYQDSLSCRLVFLLMQYCVAANYYWLLVEGVYLYTLLAFSVLSEQWIFRLYVSIGWGVPLLFVVPWGIVKYLYEDEGCATRNSNMNYWLIIRLPILFAIGVNFLIFVRVICIVVSKLKANLMCKTDIKCRLAKSTLTLIPLLGTHEVIFAFVMDEHARGTLRFIKLFTELSFTSFQGLMVAILYCFVNNEVQLEFRKSWERWRLEHLHIQRDSSMKPLKCPTSSLSSGATAGSSMYTATCQASCS [chain 2 W274A], the log10 ratio was -0.3 pIC50 ΔWT. As for chain 2 RPQGATVSLWETVQKWREYRRQCQRSLTEDPPPATDLFCNRTFDEYACWPDGEPGSFVNVSCPWYLPWASSVPQGHVYRFCTAEGLWLQKDNSSLPWRDLSECEESKRGERSSPEEQLLFLYIIYTVGYALSFSALVIASAILLGFRHLHCTRNYIHLNLFASFILRALSVFIKDAALKWMYSTAAQQHQWDGLLSYQDSLSCRLVFLLMQYCVAANYYWLLVEGVYLYTLLAFSVLSEQWIFRLYVSIGWGVPLLFVVPWGIVKYLYEDEGCWTRNSNMNYWLIIRLPILFAIGVNFLIFVRVICIVVSKLKANLMCKTDIKCRLAKSTLTLIPLLGTHEVIFAFVMDEHARGTLRFIKLFTALSFTSFQGLMVAILYCFVNNEVQLEFRKSWERWRLEHLHIQRDSSMKPLKCPTSSLSSGATAGSSMYTATCQASCS [chain 2 E364A], the log10 ratio was -0.85 pIC50 ΔWT.
